Measurements published in article PMC12041390, “Nanobody-mediated targeting of Plasmodium falciparum PfPIMMS43 can block malaria transmission in mosquitoes” (Communications Biology, 2025).

B1: PfPIMMS43 nanobody C12 (VHH)
VHH: EVQLVESGGGLVQAGGSLRLSCVDSGRTLSSYTMGWFRQAPGKEREFVAAVHYTGRRTYYADSVKGRFTISRDNDKNTVLLQMNSLKPEDTAVYYCAATEPPHSDYSTRLYNYHYWGQGTQVTVSS
notes: llama VHH; From an immune llama library (Eurogentec, pQ81 phagemid)
B2: PfPIMMS43 nanobody H6 (VHH)
VHH: EVQLVESGGALVQAGNSLRLSCAASGRTFRSYVMGWFRQAPEKEREFVARIGWSAGSTYYTDSVKGRFTISRDDAKNTVYLQMNSLKPEDTAVYYCAAGRGYSDYDPSVGYGYWGQGTQVTVSS
notes: as for B1
B3: PfPIMMS43 nanobody B11 (VHH)
VHH: EVQLVESGGGLVRAGDSLRLSCAASGTPLSSYTMGWFRQAPGKEREFVAASCWRGGSAYDADSIEGRFTISRDNAKNTVYLQMNSLKPEDTAVYYCAAVFAYICSSYGNRSPSRYGYWGQGTQVTVSS
notes: as for B1
B4: PfPIMMS43 nanobody E2 (VHH)
VHH: EVQLVESGGGLVQAGGSLRLSCAASGLTFNGDSMGWFRQAPGKEREFVAAIRWNEVAYYADFVKGRFTISRDNAKNTVTLQMNSLKPEDTAVYYCGAGVRAYSYTTRLTSASEYTYWGQGTQVTVSS
notes: llama VHH; From an immune llama library (Eurogentec, pQ81 phagemid); CDR2 of 7 amino acids
B5: PfPIMMS43 nanobody A5 (VHH)
VHH: EVQLVESGGGLVQAGVSLRLSCAASGRSLSNYAMGWFRQAPGKEREFVASITGSGSSTYYLNSVKGRFIISKDNAKNTVYLQMNSLKPEDTAVYYCAADSTGVARYTNRYDYWGQGTRVTVSS
notes: as for B1
B6: PfPIMMS43 nanobody G9 (VHH)
VHH: EVQLVESGGGLVQAGGSLRLSCAASEGTFSDYGMGWFRQAPGKEREFVASISWSGGRTGYRSSVKGRFTISRDNAKNTVYLQMNSLKPEDTAVYYCGAMSKYYRGDWSSRVTNYDDWGQGTQVTVSS
notes: llama VHH; From an immune llama library (Eurogentec, pQ81 phagemid); CDR3 of 20 amino acids
B7: PfPIMMS43 nanobody A3 (VHH)
VHH: EVQLVESGGGLVQPGGSLRLSCAASGSIFDKNGMGWFRQPPGRQRELVASITTDGNKHYGDDAKGRFTISRDIAKKTAYLQMNSLKPEDTAVYYCATTRGNYYSKSPPPIYDYYYWGQGTQVTVSS
notes: as for B4
B8: PfPIMMS43 nanobody E5 (VHH)
VHH: EVQLVESGGGLVQAGGSLRLSCAASGIHFNFKAMAWYRQAPGKQRELVAAIAPDDDTNYADSVKGRFTISRDNAKNTVYLQMNSLKPEDTAVYYCNTRIRIDYWGQGTQVTVSS
notes: llama VHH; From an immune llama library (Eurogentec, pQ81 phagemid); CDR2 of 7 and CDR3 of 8 amino acids
B9: PfPIMMS43 nanobody E1 (VHH)
VHH: EVQLVESGGGLVQAGDSLRLSCAASDSTFSIYVMGWFRQAPGKEREFVAAITGSGGNTNYADSVKGRFTVSRDNAKHTVYLQMNSLKPEDAAVYYCAAGGSYSRSSLNYPYWGQGTQVTVSS
notes: as for B1

Molecular target: T1, endogenous PfPIMMS43 produced by P. falciparum NF54 ookinetes (Plasmodium falciparum NF54 (entry 3D7, …, UniProt C6KT40))
T1 construct: PfPIMMS43 (PSOP25) of Plasmodium falciparum NF54, a 505-amino acid protein with an N-terminal signal peptide and a C-terminal GPI anchor; seen as a ~60 kDa band; GPI-anchored surface protein of ookinetes; also called ~60 kDa PfPIMMS43 protein; PSOP25; source: endogenous, lysate of P. falciparum NF54-infected An. coluzzii midguts, 18 h post blood feeding
T1 sequence (C6KT40 25-505): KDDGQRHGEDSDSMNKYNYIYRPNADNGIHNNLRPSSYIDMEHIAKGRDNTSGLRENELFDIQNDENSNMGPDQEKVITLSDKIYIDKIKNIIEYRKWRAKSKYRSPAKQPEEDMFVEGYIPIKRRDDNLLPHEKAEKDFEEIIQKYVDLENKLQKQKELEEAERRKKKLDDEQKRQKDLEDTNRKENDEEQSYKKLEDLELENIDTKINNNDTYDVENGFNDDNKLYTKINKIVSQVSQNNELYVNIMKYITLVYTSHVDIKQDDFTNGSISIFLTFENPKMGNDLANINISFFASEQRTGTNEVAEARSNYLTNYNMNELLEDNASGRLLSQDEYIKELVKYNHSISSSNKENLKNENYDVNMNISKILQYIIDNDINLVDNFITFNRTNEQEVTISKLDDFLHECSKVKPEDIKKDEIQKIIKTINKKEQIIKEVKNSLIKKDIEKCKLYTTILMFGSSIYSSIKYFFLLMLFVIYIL
Experiment: far-Western, overlay or dot blot; reduced lysates of P. falciparum NF54-infected An. coluzzii midguts (18 h post blood meal) on 10% SDS-PAGE, blotted to PVDF, probed with nanobody, detected with anti-MYC antibody; non-infected blood-fed midguts as control
Details: one partner purified

Binder	binding result
B1	binds

Molecular target: T2, recombinant Thioredoxin-His-tagged PfPIMMS43 (amino acids 26-481), full-length (FL) recombinant PfPIMMS43 (Plasmodium falciparum, 3D7 entry (NF54 …, UniProt C6KT40))
T2 construct: PfPIMMS43 (PSOP25) of Plasmodium falciparum, a 505-amino acid protein; E. coli codon-optimised; the methods give 25-481; pET-32b vector; Results give 26-481, methods 25-481; also called TRX-His-PfPIMMS43; PSOP25; not shown: Thioredoxin (TRX), N-terminal, kept; His6, N-terminal, kept; His6, C-terminal, kept
T2 sequence (C6KT40 26-481): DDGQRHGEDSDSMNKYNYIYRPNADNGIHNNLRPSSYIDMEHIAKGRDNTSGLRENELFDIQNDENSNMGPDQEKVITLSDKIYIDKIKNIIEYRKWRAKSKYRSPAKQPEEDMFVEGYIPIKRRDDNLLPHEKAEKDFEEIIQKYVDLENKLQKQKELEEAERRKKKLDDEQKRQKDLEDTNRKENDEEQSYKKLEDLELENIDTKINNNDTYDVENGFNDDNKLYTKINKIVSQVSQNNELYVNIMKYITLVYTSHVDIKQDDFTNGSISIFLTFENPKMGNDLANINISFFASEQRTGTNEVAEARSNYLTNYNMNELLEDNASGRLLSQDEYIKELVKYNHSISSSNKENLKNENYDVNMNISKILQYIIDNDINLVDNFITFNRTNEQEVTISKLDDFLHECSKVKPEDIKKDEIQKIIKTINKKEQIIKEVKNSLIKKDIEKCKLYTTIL
Experiment: ELISA; dose response ELISA; MaxiSorp plates coated with 2 ug/mL recombinant PfPIMMS43 in PBS overnight, blocked with 4% skimmed milk; VHH from 1000 nM in serial 1:10 dilutions, 1 h at room temperature; detected with rabbit anti-VHH and donkey anti-rabbit HRP, OPD, 490 nm
Details: both partners purified

Binder	binding affinity (dose response ELISA) [nM]
B2	> 50
B3	> 50
B4	8
B5	> 50
B6	3
B7	> 50
B1	6
B8	5
B9	> 50
